Assay results as given in the nanobody polyreactivity screen of Harvey et al. (2022).

Assay: yeast display, Sf9 membrane polyspecificity reagent, FACS + sequencing; frameworks hold sequencing errors
Outline: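 Galactose induction of a Saccharomyces cerevisiae BJ5465 synthetic nanobody display library ran 36–48 hours. The cells were then stained for 1 hour at 4 °C with 10% biotinylated, detergent-solubilized Sf9 membrane reagent, pulled down on streptavidin microbeads and FACS-sorted into low and high (top ~1%) gates on expression and reagent-binding fluorescence. Labels for polyreactivity follow the gate of origin.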

| Sequence | polyreactivity (PSR sort gate) |
| --- | --- |
| QVQLVESGGGLVQAGGSLRLSCAASGRIFYPYFMGWYRQAPGKERELVAAISASGGRTYYADSVKGRFTISRDNSKNTVYLQMNSLKPEDTAVYYCNARTVPAGTLYDYWGQGTQVTVSS | low polyreactivity |
| QVQLVESGGGLVQAGGSLRLSCAASGRIFYPYSMGWYRQAPGKERELVATITYIGGSTYADSVKGRFTISRDNAKNTVYLQMNSLKPEDTAVYYCAASETYFRFPFGIYYYWGQGTQVTVSS | low polyreactivity |
| QVQLVESGGGLVQAGGSLRLSCAASGRIFYQNALGWYRQAPGKERELVADITSGGSTYYADSVKGRFTISRDNAKNTVYLQMNSLKPEDTAVYDCNTPSGPGTVGSYRRKWYGYWGQGTQVTVSS | low polyreactivity |
| QVQLVESGGGLVQAGGSLRLSCAASGRIFYQNVMGWYRQAPGKERELVAAITRRDVTTYADSVKGRFTISRDNAKNTVYLQMNSLKPEDTAVYYCNAVYYNWIGFDYWGQGTQVTVSS | low polyreactivity |
| QVQLVESGGGLVQAGGSLRLSCAASGRIFYQYAMGWYRQAPGKEREMVAAISRRGASTYYADSVKGRFTISRDNAKNTVYLQMNSLKPEDTAVYYCAAEPRAYSHQYNYWGQGTQVTVSS | high polyreactivity |
| QVQLVESGGGLVQAGGSLRLSCAASGRIFYRNAMGWYRQAAGKERELVAGITRGGSTNYADSVKGRFTISRDNAKNTDYLQMNSLKPEETAVYYCAKAIPAKFYSEAGYDYWGQGTQVTVSS | low polyreactivity |
| QVQLVESGGGLVQAGGSLRLSCAASGRIFYRNAMGWYRQAPGKERELVAAIRGSGGRTYYADSVKGRFTISRDNAKNTVYLQMNSLKPEDTAVYYCAAYGYYVEHPRGLSGPYDDDYWGQGTQVTVSS | low polyreactivity |
| QVQLVESGGGLVQAGGSLRLSCAASGRIFYRNAMGWYRQAPGKERELVAAISSSAGSTYYADSVKGRFTISRDNAKNTVYLQMNSLKPEDTAVYYCAAGSGTFVTRYRYGYWGQGTQVTVSS | high polyreactivity |
| QVQLVESGGGLVQAGGSLRLSCAASGRIFYRNAMGWYRQAPGQERELVAAISKSGGSTYYADSVKGRFTISRDNAKNTVYLQMNSLKPEDTAVYYSAAGTRRTDGYSWGQGTQVTVAS | high polyreactivity |
| QVQLVESGGGLVQAGGSLRLSCAASGRIFYRNTMGWYRQAPGKERELVAPITSSGASTYYADSVKGRFTISRDIAKNTVYLQMNSLKPEDTAVYFCGAQPYVEGTKRYYWGQGTQVTVSS | high polyreactivity |
| QVQLVESGGGLVQAGGSLRLSCAASGRIFYRYAMGWYRQAPGKERELVAAIRYSGGRTYYADSVKGRFTISRDNAKNTVYLQMNSLKPEDTAVYYCAARGWYKSDYWGQGTQVTVSS | low polyreactivity |
| QVQLVESGGGLVQAGGSLRLSCAASGRIFYRYAMGWYRQAPGKERELVAAITGSGGRTYADSVKGRFTISRDNAKNTVYLQMNSLKPEDTAVYYCNDRSFCPTESRYDYWGQGTQVTVSS | high polyreactivity |
| QVQLVESGGGLVQAGGSLRLSCAASGRIFYRYAMGWYRQAPGKERELVAAITQSGGSTFYADSVKGRFTISRDNAKNTVYLQMNSLKPEDTAVYYCNRRGPGFYSTRFNYWGQGTQVTVSS | high polyreactivity |
| QVQLVESGGGLVQAGGSLRLSCAASGRIFYRYAMGWYRQAPGKERELVADITWRGGRTYYADSVKGRFTISRDNAKNTVYLQMNSLKPEDTAVYYCAATGGFYYWGQGTQVTVSS | low polyreactivity |
| QVQLVESGGGLVQAGGSLRLSCAASGRIFYRYAMGWYRQAPGKERELVARITSSGSTNYADSVKGRFTISRDNAKNTVYLQMNSLKPEDTAVYYCAARKLFIPKYYYWGQGTQVTVSS | high polyreactivity |
| QVQLVESGGGLVQAGGSLRLSCAASGRIFYRYAMGWYRQAPGKERELVASITRSGITHYADSVKGRFTISRDNAKNTVYLQMNSLKPEDTAVYYCNARRGSPAPYDYWGQGTQVTVSS | high polyreactivity |
| QVQLVESGGGLVQAGGSLRLSCAASGRIFYRYAMGWYRQAPGKERELVASITSGGSTTYYADSVKGRFTISRDNAKNTVYLQMNSLKPEDTAVYYCAARPRYRKEYDYWGQGTQVTVSS | high polyreactivity |
| QVQLVESGGGLVQAGGSLRLSCAASGRIFYRYAMGWYRQAPGKERELVATITSGGRTKYADSVTGRFTIARDNAKNTVYLQMNSLKPEDTAVYYCNAYVYSGYSIRDYWGQGTQVTVSS | high polyreactivity |
| QVQLVESGGGLVQAGGSLRLSCAASGRIFYRYARGWYRQAPGKERELVAAITRGGRTNYADSVKGRFTISRDNAQNTVYLQMNSLKPEDTAVYYCRPLWYGFDYWGQGTQVTVSS | high polyreactivity |
| QVQLVESGGGLVQAGGSLRLSCAASGRIFYRYTMGWYRQAPGKERELVAVIRSGGRTYYADSVKGRFSISRDNAKNTLSLQMNSLKPEDTSVYYCATLVRVLTLRSDLNLYGYWGQGTQVTVSS | high polyreactivity |
| QVQLVESGGGLVQAGGSLRLSCAASGRIFYRYVMGWYRQAPGKERELVAAITSSGGSTYYADSVKGRFTISRDNAKHTVYLQMISLQPEDTAVYYCAADRYTRYRYNYWGQGTQVTVSS | high polyreactivity |
| QVQLVESGGGLVQAGGSLRLSCAASGRIFYSNAMGWYRPAPGKERELVAGITISGGSTYYADSVKGRFTISRDYAKNTVSLQMNSLKPEDTAVYYCNARYLRRGDYGGQGTQVTVSS | low polyreactivity |

| Sequence | polyreactivity (PSR sort gate) |
| --- | --- |
| QVQLVESGGGLVQAGGSLRLSCAASGRIFYSNAMGWYRQAPGKERELVAAITGSGGRTHYADSVKGRFTISRDNAKNTVYLQMNSLKPEDTAVYYCAKDGYFPEFDYWGQGTKVTVSS | high polyreactivity |
| QVQLVESGGGLVQAGGSLRLSCAASGRIFYSNAMGWYRQAPGKERELVATISRGGSTYADSVKGRFTISRDNAKNTVYLQMNSLKPEDTAVYYCAAGLQGYPRKFNYWGQGTQVTVSS | low polyreactivity |
| QVQLVESGGGLVQAGGSLRLSCAASGRIFYSNAMGWYRQAPGKERELVATITYYADSVKGRFTISRDNAKNTVYLQMNSLKPEDTSVYYCAAVYLYYSRSDLYDYWGQGTQVTVSS | low polyreactivity |
| QVQLVESGGGLVQAGGSLRLSCAASGRIFYSNDLGWYRQAPGKERELVAAITSSGASTYYADSVKGRFTISRDNEKNTVYLQMNSLKPEDTAVYYCNVDIGVYAYESDYWGQGTQVTVSS | low polyreactivity |
| QVQLVESGGGLVQAGGSLRLSCAASGRIFYSYAMGWYRQAPGKEREFVAAIRWSGGRTYYADSVKGRFTISRDNAKNTVYLQMNSLKPEDTAVYYCAAELYGNNFWDGTTGYDYWGQGTEVTVSS | low polyreactivity |
| QVQLVESGGGLVQAGGSLRLSCAASGRIFYSYAMGWYRQAPGKERELVAAISRSGGRTYYADSVKGRFTISRDNAKNTVYLQMNSLKPEDTAVYYCNAYRPRFSTRVDYWGQGTQVTVSS | high polyreactivity |
| QVQLVESGGGLVQAGGSLRLSCAASGRIFYTKTMGWYRQAPGNEWELVAAIRSGTRTDYADSVKGRFTISRDNAKKTVYLQMNSLKPYDTAVSYCNKAAGVTGRYYYWGQGTQVTVSS | low polyreactivity |
| QVQLVESGGGLVQAGGSLRLSCAASGRIFYTNAMGWYRQAPGKERELVATISLRGGSTYYADSVKGRFTISRDNAKNTVYLQLNSLKPEDTAVYDCAARFWSVYSGNPTYPKYYWGQGTQVTVSS | high polyreactivity |
| QVQLVESGGGLVQAGGSLRLSCAASGRIFYTNGMGWYRQAPGKERELVAAITYSGGNTFYADSVKGRFTISRDNSKNTVYLQMNSLKPEDTAVYYCAATFTYLGYWYDYRGQGTQVTVSS | low polyreactivity |
| QVQLVESGGGLVQAGGSLRLSCAASGRIFYTYAMGRYRQAPGKERELVAVISSGGSTNYADSVKGRFTISRDTAKNNVYLQMNSLKPEDTAVYYCNADTGAADYFDFDYWGQGTQVTVSS | low polyreactivity |
| QVQLVESGGGLVQAGGSLRLSCAASGRIFYTYVMGWYRQAPGKERELVAAINRSGGTTYYADSVKGRFTISRDNAKNTGYLPMNSLKPEDTAVYYCNATLPDYWPYYYYQGGDDYWGQGTQVTVSS | low polyreactivity |
| QVQLVESGGGLVQAGGSLRLSCAASGRIFYVYAMGWYIKAPGKERELVAAITSSGGRTNYADSVKGRFTISRDNAKNTVYLQMNSLKPEDTAVYYCAAAYPWGDYGVSDYDYWGQGTQVTVSS | low polyreactivity |
| QVQLVESGGGLVQAGGSLRLSCAASGRIFYVYAMGWYRQAPGKERELVAAINWRGGSTYYADSVKGRFPISRDNAKNTVYLQMNSLKPEDTAVYYCAARWYLYDYWGQGTQVTVSS | low polyreactivity |
| QVQLVESGGGLVQAGGSLRLSCAASGRIFYVYTMGWYRQAPGKERELVAAISWSGGSTHYADSVKGRFTISRDNAKNTVYLQMNSLKPEDTAGYYCNKGVVSRVAFEYWGQGTQLTVSS | low polyreactivity |
| QVQLVESGGGLVQAGGSLRLSCAASGRIFYWNVMGWYRQAPGKERELVAAISSSGASTSYADSEKGRFTISRDNEKNTVYLQMNSLKPEVTAGYYCDARTRRNYRQYNYWGQATQVTVSS | high polyreactivity |
| QVQLVESGGGLVQAGGSLRLSCAASGRIFYWYAMGWYRQAPGKERELVAAISSAGTTYYADSVKGRFTISRDNAKNTVYLQMNSLKPEDTAVYYCAATLGFYRRSEYDYWGQGTQVTVSS | high polyreactivity |
| QVQLVESGGGLVQAGGSLRLSCAASGRIFYWYAMGWYRQAPGKERELVATINSGGSTTYADSVKGRFTISRDNAKNTVYLQMNSLKPEDTAVYYCARQRTVKKYYYWGQGTQVTVSS | high polyreactivity |
| QVQLVESGGGLVQAGGSLRLSCAASGRIFYWYTMGWYRQAPGKERELVASISGSGGSTYYADSVKGRFTISRDNAKNTVYLQMNSLKPEDTAVYYCNKGSRWLRGLDYWGQGTQVTVSS | high polyreactivity |
| QVQLVESGGGLVQAGGSLRLSCAASGRIFYWYVMGWYIQAPGKERELVATIRYSGGNTYYADSVKGRFTISRDNAKNTVYLQMNSLKPEDTAVYYCAAGSLYWGRSPTRGGQGGYWGQGTQVTVSS | high polyreactivity |
| QVQLVESGGGLVQAGGSLRLSCAASGRIFYYNAMGWYRPAPGKERELVAAITYIGGNTHYADSVKGRFTISRDNAKYTVYLQMNSLKPEDTAVYYCARGTVLGFYYEYGYWGQGTQVTVSS | low polyreactivity |
| QVQLVESGGGLVQAGGSLRLSCAASGRIFYYNAMGWYRQAPGKERELVAAISYTSGRTYYADSVKGRFTISRDNAKNTVYLQMNSLKPEDTAVYYCAADYYLRKGMDYWGQVTQVTVSS | low polyreactivity |
